Test results: a protein production outcome set (Wang et al. 2014)

Experiment: label from the status in PepcDB records

Sequence | protein production
MNAIGLVGFAFVGAAKAIEERYDVFGVTVVGVMTALGGGTTRDLLLNRVPNSLQSPGEVALSLLGVTAAVLFVHFLDDGHQHPVVLTADAIGLAAFTTTGALLGQQAGLPVFAVVALATVNAAGGGAISDLLLGRTPFILREDFYASCAVIGGLAFWALAQIGVSVSVASAGCALAVLLARGLGIGRGWSLPTVQAWERRDAQ | failed
MNAIREGVRALCAEFDAAYWRRIDEQRGFPEAFVKALTDAGWLSAMIPEEYGGSGLGLAEASVILEEVNRCGGNSGTVHGQMYNMFTLLRNGSEAQKRFYLPKLASGELRLQSMGVTEPTTGTDTTKIKTTAVRKGDRYVINGQKVWISRIQHSDLMILLARTTPLAEVKRKSEGMSIFLVDLREAIGKGLTVQPIANMVNHETNELFFDNLEIPADSLIGEEGKGFRYILDGLNAERTLIAAECIGDGRWFIDKASHYARDRVVFGRPIGQNQGVQFPIAEAHIEVEAADLMRWRACQEYDAGLNAGASANMAKYLAAKASWEAANACLQTHGGFGFACEYDVERKFRETRLYQVAPISTNLILSYVAEHLLELPRSF | failed
MNALGTKARVVGTGVLVLGLLSGCTTAAPSPSSPTPTQATPTQAASSNAGPGPASSAAVPAQQSAEAKLSPEAQIETDRLLILAAKANDAAKVRELIAAGGNVNAKDEIQDSAFLYAGAEGFNEVLQLTLAAGADVRSTNRYGGTALIPASEHGHTETVRILIAAGVPVDHVNNLGWTAMQEAILPNNGGPNQQDVVRQLLAAGATPDIRDPQGRTALQNAERLGFTEIAALIRNR | failed
MNALVLYFDGKCPFCAAEMRRLSEWDTQHQLAFVDIAQEGFDCSSLNVDLAALNRELHGRTSDGRLLVGIDCMIAAYTLAGHGWLVLPLRVPGLRRVLANLYRAFAGNRYTLSRWLGYGTATACDGDSCGTGNPFLSGKELTDAAEDRPARRDSRQLAVRWMYAAAIAHLLVGAAMPWAADATLFGTYHRIVEQSFWSGAAPAQARAQQVWWIALFGATLQCSAIWMLALVHLGNRTRHRMAWGWLLVGLLVWAPQDLLISLQAHVWPHVLVDAVALLTMIPPLLYLWRKDAA | failed
MNANQFLKAVSQLQGWRECAFLLALAERSFPNYALFADAVGLKTGGKMRQLLDLAWDMLQKDVADAAIPQLLSKLETLCPNVDEYDAYGVYPAFDFCQLLEQALLNRLNPNKHRATEASQLATRTVMDFVEMSEGEGMDENELVRVFEHHPLLKDDKLFQRDTVMALYYYRTPKEAFLAELRAGAANDGVSNLGISLEG | not failed
MNAPSLKEENALTITRVFDAPANLVFKVWTTPEHLARWWGPKGFTVPAITTDFREGGAWRGCIRSPEGQDYWAHGIYREIVAPSRIVLSFVWEEEGAIDTLITVTLEDVAGGTRLTFHQAPFTSAESRDSHAEGWSECMDRLVSYVAARKEEVQ | failed
MNARHARYPFLGDARDAVEEAGVDLARVVTEDDAVVERARERVVSALTDGTIGEPAATVSTRVEVLSYPVARVLVSIVDESVLVRKYATAEADAAYDRFTADESTDTDLKSVSDTTRVSRDTLLSEFDLRAHVHATPDAHTVDVPTYLLLASSLRDDDWRLVNRALDDGRVPVTDAELDTLIREAIRERVADGLPLSVPDQIADALDEPVAAIQDALADLDLTREIDTVVPELFPPCMKHLLDQVQRGDHLPHHARFAITSFLSNVGLSTDEIVDIYEVNPGFGEEMTRYQTDHIQGDSSPTEYTAPSCATMKAYGNCVNPDDLCDAINHPLSYYEVKLDDGDDDDLADWRDREDDDSPD | failed
MNARSGDNVVLAILLSLLALVLFDMMGLIIKYLSPRYGAAELSAYRNFFGVFPSVIALWSSPGWHRAGRPWRIRQWRLGLMRGVYVTFAQFLFYYSLGKLAFATASTITYANAVFMTALAVPLLGERVGLMRWAAVLLGFAGVLLVMKPGSDSFTPDALAPLGAAFLYALTGVSARQMDSAVPSALINLYSVVAALVGALALALLSGGFTPLAQWSDLGWIAAMGGFGGTAVLCLVASYRMTEQSNLAPFSYFGIPIAFVAGWLVFDETPWADLFPGAFFIAGGGLMIVWRERIRSRAGRRISN | failed
MNASTSPLPASDQTLRGILLICAAVFLFASHDGLSKFLSGFYPIVMVVWARYLVHTLLMVAVFVPRNGLAVIRSRRPLMQLARALCLIGTSLFFTTGLRYLPLAEATAVNFLAPLLVTALSVPLLKEKVSLGQWLAVLTGFIGVLFIVRPGGALFTPAALFPLGSALCFGLYQLLTRMLANSDSPTTSNFLAGIFNTLIMSLLVPFFWQTPSLLHGLMMIALGGCGMGGHLLLTQAFRHAPPATLAPFSYGQIIFAGLLGLLVFGHVPDAWALLGILVICASGLVVAWRRGR | failed
MNATHDLQSTPSRLRRFACMMYEGVLLFGVVFIASYLFDTLTQSKHGLMLRDGRQVWLFLVIGLYFVLCWRRRGQTLPMKTWNIRLVDRDGQPPSTPRLVLRYVLAWPLPLGAAALVWLASSLTGWRSVDMFIVLAPFAIFAWSWVDPDGQFLHDRLLGTRLRNAPPRAARAVAGT | failed
MNATLIDCCDPQKPSRVLFHFLILDAPSPSNLPTYIKELQHRGVRHLVRVCGPTYDATLVKSRGIDVHSWPFDDGAPPTRAVLDSWLKLLDTELARQQEDPSVPPPTIGVHCVAGLGRAPILVALALVEYGNVSALDAIALIREKRKGAINQTQMHWITKYKR | not failed
MNATSTAPSSRHTLRSLAGDVFELLGSMRFAVSLLMFICIASIVGTVLAQNRPSNVYVDQFGPFWFEVFDKFSIWHVYNSWWFLLIMTFLVVSTSVCLIRNTPKMLREARSFREHVRASSLRAFPHRLQTEVAQPVSETAQGVTGLLGQFGYAVRERRDGDGIMLAAKKGSANRLGYIFAHSAMVIICIGGLLDSEAPVRLQVLFDGKQPIAINGEMARADIPDSALLSVNNPSYRANLWVPEGSNASLATIAVNDRSLVQPLPFSLRLKKFTVDYYSTGMPSRFLSLVEVTDPETGEMFDQTIEVNEPLRYKGVTVYQSSFDDGGSSVSLTGYPLVGAGDTPFKVDGVVGQTSEIGARIGDQPKSMKIEFTALRVINVEDFSGGQPGAQNLSLREHVASVAGSAAGKKNENLRNVGPRIDYKLIDDAGQAHEFQNYMLPVVLDGVPVFLSAVRNNPADDFQYLRIPADDQGSLAEFMRLRAALADPAARQEAARRFAERNAPSGTDRQPLETAAQRALATFAEGGLQAIADFLQANTAPDDLERAAGIVVRLVGASVAELRDIARARAGLPALPQSGPQADEAAQWSRVAVAALSDLAFYPAPVMFSLTDFQERQGSVFQVARTPGKNAVYLGCVLLILGIFAMFYIRDRRVWVWVKPAADGAGSSIEAAMTSQKRTLDFNQEFDRLREALLRQSKP | failed
MNDDKDVVIDQIYYISTDPSATTYPTTFSVSLVDNSVAGRPFFYVVGKSTMRVDRNTTLRVEEDSKLVEKYNETYGKKYLPFPEGTYSFSTNEVTINQGDNFSSDTIFISFSNWDKLSKIDKYLLPVSLKAVDDKGAVSMDRNLIYFIADFSTTNTGYNKPAAWKPLDRTDWDVSFSYAYGYDEAQFGGRLAVDGDVSTTWFTWGVVSAGECWWATTLPAPTHLTGFSLTRQTTFGSSYNVREAKVKVKKEGDTEWTEAGLFRFGSFKGNDPQYAVFIPAVENVKEFRIDIVSPADFTGFAELDLYQLEHHHHHH | failed
MNDGDGTPAAAARERRFGPLGTALVIIPTYNEAENIKAIVTRVREAVPEAHVLVADDNSPDGTGKLADELAAADDHVQVMHRKGKEGLGAAYLAGFRWGLEHGYGVLIEMDADGSHQPEELPRLLTALKGADLVLGSRWVPGGRVVNWPKSREIISRGGSMYSRIALDLPLRDITGGYRAFRRETLEGLGLEEVASQGYCFQVDLARRAIKAGYHVVEVPITFVERELGDSKMSRDILVEALWRVTTWGVGERVGKVLGRDRRSGTAADGQTASSGTDGRTASSDRSTDSLDESAKASDAKA | failed
MNDIQQALQEALTHHQAGRLGEAKTLYDAILHAQPGQPDAMHFLGLLACQLKQYDAGLALMERSLAERPDASYFNNLGNMLRECGRLDDAIAHYRRAVALRPDYPEAHNNLGNALRDARDPAEAMRSCSRAIELRPGYAEAYNNLGNVLQDLGELDAAAASYGKAIAFHPAYAEAHSNLGNVLRAQERHADAIVHYRRAIELNPALRVAHRGLAIALRATDDFDGALEHARAGLEPDDAEGHCMLGRSLRSMNDFDGAARLFERACEIDPGYAPAWCRLGELRCQQGEYEESLRLCRHAIELDPELADAYNFLGLAYHNLDRMAASELSHRHAIDLNPDDADAHHNLAAALFRLDKLDEAMSEYRIAQELGVDPVKIQLTLGDILWAKRDFSGAVAAFREAVEHDPHRAYARLLFNMSSSPAFAPEEWVVDAQRYGDYLARDARLLSHDREQRARQARGRPLRVGFVSGDLRQHPVGIFLESVLAHLDRTRIEPHAYVTFVVEDDVTARLKTGFASWKKLTCLNRDQAARMIHDDGIDVLVDLAGHTNWSGLPVFAHRPAPVQASWLGFFATTGCRAIDYFIGDPHTLPADEAHHFVEQPWHLPDSYLCFTPPAYDVAVGPLPMATNGGVTFGCFGKLTKISDDVIALWSRLLHALPDARLMLKAHELGASDLNRATLERFARHGIGAHQLILEGGSPRAEYFNAYNRIDIALSPFPYPGGTTTAEALWMGVPVIGMKGGRFVTHICESLLHAAGMGDWIAADEDAYLAKAIAFAGDRDALAALRATLRERTLASPLCDAARFARNLEDAFHGMWARYVAGDTDGART | failed
MNDISVSADRHAIERGSFNGNAKEYFGIWIVNILLTIMTLGIYSAWAKVRRKRYFNGNTLLAGRAFGYHATGGQIFKGRLIAFAFIVFSQLVGLIHPFLVFAPTILLLIFLPWVITRSIRFNARVTSYRNVRFDFVGTAWGAFVSILLGSFVALLSIGILAPLASRWANRYIVSNLHYGDRRFSTDPKIGALYRAWIIPALLVVVGGVLAVFLLIFLAMVLVQAAGIGSRELATAPENYEIVTLFGLGQILINLLVAMLIYGFASTVYKAGVRNVVVSSTLLDGKHELHSDLHRGRYLWIVFSNLIVTIFTFGLMRPWAAVREAQYAVERMGISFKGDMGEVLSSMEATGAAVSAEYMDMEGFEFGF | not failed
MNDQVLRTQTDRRQLQQIIAGLTEGVILIEPDQRILWANEAALAMHGVDSLEGLGADTGEYRERFRLRYRNNHPLQEGQYPAERLVAGECFSDVVVEVFPAADEDTRWVHRVRGLVLTTPEDKPDCLVLILHDAT | not failed
MNDRPNNYILTRESGFKVITELTKGQNCNGAETHPINGELYFNSWNAGQVFRYDFTTQETTPLFTIQDSGWEFHIQFHPSGNYAYIVVVNQHYILRSDYDWKTKRLTTPYIVCGQQGAKDWVDGVGKKARMHAPRQGTFVKNPAYKGSSDEYDFYFCDRENHCIRILTPQGRVTTFAGRGSNGTSGYNDGDLRQEARFNHPEGIVYDEERECFFIGDRENRRIRKIGLEHHHHHH | not failed
MNDTYQPINCDDYDNLELACQHHLMLTLELKDGEKLQAKASDLVSRKNVEYLVVEAAGETRELRLDKITSFSHPEIGTVVVSES | not failed
MNEKVYYFIKSYDDSLPMPPAESFGQILNETYLHPFDWSARTTRKSYWWSVLINFILSILCIVLGFYAFNKNINPGIRVIDAVVAIVVYLWVFLAGLGQMVRRLHDVGYSGYWYWSTFTGYGTMFLFYLALQPSAQRKVKWGKYLFSDQDYPEGKKEKVPVPTIGQILKEHFFDCFNWDARSTRTSFWVGTAINQVVMVIGVLACYLIAFLLFLPFRVTGLNSDDSKVIAVFFIIFLIFFAAVTIWAFLAQLGHTVRRLHDAGFNGGWWWLSVIPYVGQLLLAFLLFHPTVKNEVKWNKYLFDPEDRIR | failed
